Results reported in article PMC5001606.
Where a chain is given by its changes, count along the chain named. Names may count otherwise.

T1: HiNmlR wild-type (Haemophilus influenzae Rd KW20, UniProt P44558 1-135)
T1 sequence: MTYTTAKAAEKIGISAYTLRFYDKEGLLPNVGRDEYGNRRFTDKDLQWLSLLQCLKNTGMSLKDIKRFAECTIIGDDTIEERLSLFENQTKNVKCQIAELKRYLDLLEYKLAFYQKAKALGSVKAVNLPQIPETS

T2: HiNmlR C54A/C95A (Haemophilus influenzae Rd KW20, UniProt P44558 1-135, C54A;C95A)
T2 sequence: T1 sequence with C54A, C95A

T3: HiNmlR C54A (Haemophilus influenzae Rd KW20, UniProt P44558 1-135, C54A)
T3 sequence: T1 sequence with C54A

T4: HiNmlR C71A/C95A (Haemophilus influenzae Rd KW20, UniProt P44558 1-135, C71A;C95A)
T4 sequence: T1 sequence with C71A, C95A

T5: HiNmlR C54A/C71A/C95A (Haemophilus influenzae Rd KW20, UniProt P44558 1-135, C54A;C71A;C95A)
T5 sequence: T1 sequence with C54A, C71A, C95A

B1: G5'C/C5G 24-bp (dsDNA)
DNA 1: CACTTTACAGTTCACTGTAAAGCA
DNA 2: TGCTTTACAGTGAACTGTAAAGTG
B2: G5'C 24-bp (dsDNA)
DNA 1: CACTTTACAGTTCACTCTAAAGCA
DNA 2: TGCTTTAGAGTGAACTGTAAAGTG
B3: PadhC-estD/nmlR IR wt 24-bp (dsDNA)
DNA 1: CACTTTAGAGTTCACTCTAAAGCA
DNA 2: TGCTTTAGAGTGAACTCTAAAGTG
B4: C5G 24-bp (dsDNA)
DNA 1: CACTTTAGAGTTCACTGTAAAGCA
DNA 2: TGCTTTACAGTGAACTCTAAAGTG

Key:
Experiment in all cases: MST
HiNmlR wild-type = target: T1, HiNmlR wild-type
HiNmlR C54A/C95A = target: T2, HiNmlR C54A/C95A
HiNmlR C54A = target: T3, HiNmlR C54A
HiNmlR C71A/C95A = target: T4, HiNmlR C71A/C95A
HiNmlR C54A/C71A/C95A = target: T5, HiNmlR C54A/C71A/C95A

Row | Binder | Kd (HiNmlR wild-type) [nM] | Kd (HiNmlR C54A/C95A) [nM] | Kd (HiNmlR C54A) [nM] | Kd (HiNmlR C71A/C95A) [nM] | Kd (HiNmlR C54A/C71A/C95A) [nM]
1 | B1 | 4690 ± 311 |  |  |  | 
2 | B2 | 245 ± 26.1 |  |  |  | 
3 | B3 | 25.2 ± 2.3 | 47.4 ± 6.7 | 91.1 ± 15.6 | 33 ± 3.4 | 55.3 ± 5.3
4 | B4 | 252 ± 17.4 |  |  |  | 
